Structures can show the parent of a compound that is named as a salt.
How the values were obtained:
[1] = molecular target: T1, Trm10 (Saccharomyces cerevisiae, UniProt Q12400); assay: electrospray mass spectrometry of RNase T1 fragments (+[…] Da adduct); format: biochemical; settings: cosubstrate with tRNA-Gly-GCC; 1 h, 37 °C; covalent to tRNA G9, not to the enzyme
T1 construct: full-length, N-terminal 6xHis tag, plasmid pJEJ12-3, expressed in E. coli BL21(DE3) pLysS; monomer (printed PDB 4JWJ covers the C-terminal domain only)
T1 sequence (Q12400 1-293): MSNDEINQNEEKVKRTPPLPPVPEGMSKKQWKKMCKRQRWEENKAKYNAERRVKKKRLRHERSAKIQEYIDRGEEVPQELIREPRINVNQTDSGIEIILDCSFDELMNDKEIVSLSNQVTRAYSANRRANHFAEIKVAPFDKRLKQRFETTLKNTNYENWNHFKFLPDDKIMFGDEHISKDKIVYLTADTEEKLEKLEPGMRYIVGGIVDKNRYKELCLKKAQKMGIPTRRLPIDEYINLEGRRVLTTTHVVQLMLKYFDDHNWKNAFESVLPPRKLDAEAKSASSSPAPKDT

[2] = tested on: Trm10 (wild type) (Saccharomyces cerevisiae); assay: fluorescence anisotropy; settings: unmodified transcript, FA: 15 nM labeled tRNA, 50-300 nM enzyme, 30 min at room temperature, buffer as in ref 17 (not given), EMSA: 4 uM tRNA, 0-10 uM protein, 30 C 30 min
[3] = tested on: Trm10-KRR (Saccharomyces cerevisiae); assay: fluorescence anisotropy; settings: unmodified transcript, FA: 15 nM labeled tRNA, 50-300 nM enzyme, 30 min at room temperature, buffer as in ref 17 (not given), EMSA: 4 uM tRNA, 0-10 uM protein, 30 C 30 min

Nc1ncnc2c1ncn2[C@@H]1O[C@H](CN(CCI)CC[C@H](N)C(=O)O)[C@@H](O)[C@H]1O [NM6, 5′-(diaminobutyric acid)-N-iodoethyl-5′-deoxyadenosine ammoniumhydrochloride]
electrospray mass spectrometry of RNase T1 fragments (+393 Da adduct) [1]: NM6 was confirmed to be a suitable cosubstrate for tRNA modification by Trm10 using mass spectrometry

tRNAVal-UAC, FA transcript
Kd [2]: 96 nM

tRNALeu-CAA, FA transcript
Kd [2]: 38 nM

tRNAGly-GCC, 5'-fluorescein transcript
Kd ([2]; separate data set, differs from Fig 4C): 100 nM | Kd [2]: 20 nM | Kd [3]: 34 nM

From paper PMC10704376, “tRNA m^1G9 modification depends on substrate-specific RNA conformational changes induced by the methyltransferase Trm10” (The Journal of Biological Chemistry, 2023)
